# Test results as given in patent US20230348616A1 (MIE UNIVERSITY, published 2023).
# Numbering of substitutions follows the chain as printed.
# B1: NYA-2027 (scFv)
# scFv: GEVQLVESGGGVVQPGRSLTPSCSASGFSIRSYDIHWVRQAPGKGLEWVATISYDGSQKYFADSVKGRFTIFRDESENMVYLQMSGLRVEDTAVYHCARGSSGHYEAFDIWGQGTMVTVSSGGGGSGGGGSGGGGSQSVLTQPPSVSAAPGQKVTISCSGSSSNIGNNYVSWYQQLPGTAPKLLIYDNNKRPSGIPDRFSGSKSGTSATLGITGLQTGDEADYYCGSWDSSLSAPWVFGGGTKVTVLGAAAGAGGDYKDDDDKGAAAHHHHHH
# B2: NYA-2035 (scFv)
# scFv: B1 scFv with Q40L, N168W, Y169K, S227T
# B3: NYA-2143 (scFv)
# scFv: B1 scFv with Q40L, N168W, Q175R, S227T
# B4: NYA-2060 (scFv)
# scFv: GEVQLVESGGGLVQPGGSLRLSCAASGFSIRSYDIHWVRQAPGKGLEWVATISYDGSQKYYADSVKGRFTISRDESKNTLYLQMNSLRAEDTAVYHCARGSSGHYEAFDIWGQGTLVTVSSGGGGSGGGGSGGGGSQSVLTQPPSVSAAPGQKVTISCSGSSSNIGNWYVSWYQQLPGTAPKLLIYDNNKRPSGIPDRFSGSKSGTSATLGITGLQTGDEADYYCGTWDSSLSAPWVFGGGTKVTVLGAAAGAGGDYKDDDDKGAAAHHHHHH
# notes: also called NYA-2060 tag adduct
# B5: NYA-2044 (scFv)
# scFv: B4 scFv with Q40L
# notes: also called NYA-2044 tag adduct
# B6: NYA-2045 (scFv)
# scFv: GEVQLVESGGGLVQPGGSLRLSCAASGFSIRSYDIHWVRLAPGKGLEWVATISYDGSQKYYADSVKGRFTISRDESKNTLYLQMNSLRAEDTAVYHCARGSSGHYEAFDIWGQGTLVTVSSGGGGSGGGGSGGGGSQSVLTQPPSASGTPGQRVTISCSGSSSNIGNWYVSWYQQLPGTAPKLLIYDNNKRPSGVPDRFSGSKSGTSASLAISGLQSEDEADYYCGTWDSSLSAPWVFGGGTKLTVLGAAAGAGGDYKDDDDKGAAAHHHHHH
# notes: also called NYA-2045 tag adduct
# B7: NYA-2047 (scFv)
# scFv: B4 scFv with E2Q, L12V, G17R, I35M, E75N, N85S
# B8: NYA-2061 (scFv)
# scFv: B6 scFv with L40Q
# notes: also called NYA-2061 tag adduct
# Molecular target: T1, HLA-A2/NY-ESO peptide complex presented on cells (human)
# T1 construct: whole, on cells; also called HLA/NY-ESO; T2 cells supplemented with the NY-ESO peptide
# Assay: flow cytometry on peptide-pulsed T2 cells, scFv 100 nM
# Experimental: (§1) The cells were washed 2 times in PBS containing 5% FBS, immobilized with Mildform 10 N (FUJIFILM Wako Pure Chemical Corporation) overnight, and resuspended in PBS containing 5% FBS. The cell suspensions were subjected to detection using a flow cytometer (CantoII, Becton Dickinson). […] The standardized gMFI indicating the binding affinity of each scFv standardized with the amount of the HLA/peptide complex on the T2 cells was determined in accordance with the following equation.
# (§2) The 9-mer peptide shown in FIG. 2A was selected as a homologous peptide for evaluation of binding specificity of anti-HLA/NY-ESO scFv. […] The standardized gMFI indicating the binding affinity of each scFv standardized with the amount of the HLA/peptide complex on the T2 cells was determined in accordance with the following equation.
row,Binder,standardized gMFI
1,B1,7.25
2,B2,11.1
3,B3,13.5
4,B4,11.2
5,B5,14.3
6,B6,13.8
7,B7,10.2
8,B8,10.4

# Molecular target: T2, HLA-A2 / homologous peptide IL20RB complex on T2 cells (human)
# T2 construct: whole, on cells; also called T2 cells supplemented with homologous peptide IL20RB
# Assay: as above
# Experimental: as §1, §2
row,Binder,standardized gMFI
1,B1,0.42
2,B2,0.41
3,B3,0.42
4,B4,0.45
5,B5,0.43
6,B6,0.47
7,B7,0.43
8,B8,0.46

# Molecular target: T3, HLA-A2 / homologous peptide P2RY8 complex on T2 cells (human)
# T3 construct: whole, on cells; also called T2 cells supplemented with homologous peptide P2RY8
# Assay: as above
# Experimental: as §1, §2
row,Binder,standardized gMFI
1,B1,0.7
2,B2,0.69
3,B3,0.69
4,B4,0.62
5,B5,0.72
6,B6,0.58
7,B7,0.72
8,B8,0.57

# Molecular target: T4, HLA-A2 / homologous peptide CD163 complex on T2 cells (human)
# T4 construct: whole, on cells; also called T2 cells supplemented with homologous peptide CD163
# Assay: as above
# Experimental: as §1, §2
row,Binder,standardized gMFI
1,B1,0.51
2,B2,0.48
3,B3,0.46
4,B4,0.47
5,B5,0.47
6,B6,0.48
7,B7,0.47
8,B8,0.48

# Molecular target: T5, HLA-A2 / homologous peptide PRKD2 complex on T2 cells (human)
# T5 construct: whole, on cells; also called T2 cells supplemented with homologous peptide PRKD2
# Assay: as above
# Experimental: as §1, §2
row,Binder,standardized gMFI
1,B1,0.32
2,B2,0.33
3,B3,0.32
4,B4,0.33
5,B5,0.33
6,B6,0.34
7,B7,0.35
8,B8,0.33

# Molecular target: T6, HLA-A2 / homologous peptide DOLPP1 complex on T2 cells (human)
# T6 construct: whole, on cells; also called T2 cells supplemented with homologous peptide DOLPP1
# Assay: as above
# Experimental: as §1, §2
row,Binder,standardized gMFI
1,B1,0.39
2,B2,0.38
3,B3,0.38
4,B4,0.42
5,B5,0.38
6,B6,0.43
7,B7,0.4
8,B8,0.4

# Molecular target: T7, gp100 (human)
# T7 construct: cell surface;cell surface complex; also called HLA-A2 / gp100 peptide complex on T2 cells
# Assay: as above
# Experimental: as §1, §2
row,Binder,standardized gMFI
1,B1,0.31
2,B2,0.29
3,B3,0.31
4,B4,0.32
5,B5,0.32
6,B6,0.3
7,B7,0.3
8,B8,0.32

# Molecular target: T1, HLA-A2/NY-ESO peptide complex presented …
# Assay: as above
# Remark: another data set of the same source
row,Binder,standardized gMFI
1,B1,5.75
2,B2,9.94
3,B3,13.1
4,B4,8.78
5,B5,12.9
6,B6,9.03
7,B7,7.99
8,B8,8.62

# Molecular target: T7, gp100
# Assay: as above
# Remark: another data set of the same source
row,Binder,standardized gMFI
1,B1,0.41
2,B2,0.38
3,B3,0.38
4,B4,0.41
5,B5,0.39
6,B6,0.39
7,B7,0.39
8,B8,0.4

# Molecular target: T2, HLA-A2 / homologous peptide IL20RB …
# Assay: flow cytometry, peptide-pulsed T2 cells
row,Binder,binding result
1,B1,no binding (tested: 100 nM)
2,B2,no binding (tested: 100 nM)
3,B3,no binding (tested: 100 nM)
4,B4,no binding (tested: 100 nM)
5,B5,no binding (tested: 100 nM)
6,B6,no binding (tested: 100 nM)
7,B7,no binding (tested: 100 nM)
8,B8,no binding (tested: 100 nM)

# Molecular target: T3, HLA-A2 / homologous peptide P2RY8 …
# Assay: flow cytometry, peptide-pulsed T2 cells
row,Binder,binding result
1,B1,no binding (tested: 100 nM)
2,B2,no binding (tested: 100 nM)
3,B3,no binding (tested: 100 nM)
4,B4,no binding (tested: 100 nM)
5,B5,no binding (tested: 100 nM)
6,B6,no binding (tested: 100 nM)
7,B7,no binding (tested: 100 nM)
8,B8,no binding (tested: 100 nM)

# Molecular target: T4, HLA-A2 / homologous peptide CD163 …
# Assay: flow cytometry, peptide-pulsed T2 cells
row,Binder,binding result
1,B1,no binding (tested: 100 nM)
2,B2,no binding (tested: 100 nM)
3,B3,no binding (tested: 100 nM)
4,B4,no binding (tested: 100 nM)
5,B5,no binding (tested: 100 nM)
6,B6,no binding (tested: 100 nM)
7,B7,no binding (tested: 100 nM)
8,B8,no binding (tested: 100 nM)

# Molecular target: T5, HLA-A2 / homologous peptide PRKD2 …
# Assay: flow cytometry, peptide-pulsed T2 cells
row,Binder,binding result
1,B1,no binding (tested: 100 nM)
2,B2,no binding (tested: 100 nM)
3,B3,no binding (tested: 100 nM)
4,B4,no binding (tested: 100 nM)
5,B5,no binding (tested: 100 nM)
6,B6,no binding (tested: 100 nM)
7,B7,no binding (tested: 100 nM)
8,B8,no binding (tested: 100 nM)

# Molecular target: T6, HLA-A2 / homologous peptide DOLPP1 …
# Assay: flow cytometry, peptide-pulsed T2 cells
row,Binder,binding result
1,B1,no binding (tested: 100 nM)
2,B2,no binding (tested: 100 nM)
3,B3,no binding (tested: 100 nM)
4,B4,no binding (tested: 100 nM)
5,B5,no binding (tested: 100 nM)
6,B6,no binding (tested: 100 nM)
7,B7,no binding (tested: 100 nM)
8,B8,no binding (tested: 100 nM)

# Molecular target: T8, HLA-A*0201/β2-microglobulin/NY-ESO peptide complex (human, biotinylated with E. coli biotin ligase at the added recognition sequence (biotinylated form used in the ELISA))
# T8 construct: also called HLA/NY-ESO; HLA-A2/NY-ESO
# Assay: SPR (Biacore T200), scFv captured by anti-His antibody, HLA/NY-ESO as analyte, single cycle kinetics
# Experimental: With the use of Biacore T200, anti-HLA/NY-ESO scFv was captured as a ligand by the immobilized anti-His antibody, and the antigen was assayed as an analyte. As the antigen, HLA/NY-ESO prepared in 1)-1 was used. The anti-His antibody (His Capture kit, GE Healthcare) was immobilized on Sensor Chip CM5 (GE Healthcare) in accordance with the instructions of the kit. The anti-HLA/NY-ESO scFv constructs diluted to 0.5 μg/ml in HBS-EP+ (GE Healthcare) to be evaluated were brought into contact therewith at 10 μl/min for 60 seconds for immobilization. Thereafter, the samples were added to the HLA/NY-ESO analytes diluted to various levels with HBS-EP+ at a flow rate of 30 μl/min for 120 seconds and dissociation was assayed for 600 seconds.
row,Binder,Kd [nM]
1,B1,11.2
2,B2,3.2
3,B3,0.9
4,B4,1.1
5,B5,0.8
6,B6,0.8
7,B7,5.3
8,B8,1.5
